US20240002497A1 (Merck Sharp & Dohme, published 2024)
Changes are numbered by the printed parent chain. Names and notes keep the numbering of the source. Blank lines part the entries; values can stand above or below the binder they belong to.

Experiments:
huNav1.7α + β1-β2-β3 [1] = target: T1, huNav1.7α + β1-β2-β3 (human, UniProt Q15858 1-1988; A5A6L6 19-218; O60939 30-215; Q2KI11 23-215); assay: cell-based or functional assay
Rhesus Nav1.7α = Rhesus Nav1.7α (rhesus, UniProt Q15858 1-1988 (human entry)); assay: cell-based or functional assay
rhNav1.7α + β1-β2-β3 [2] = target: rhNav1.7α + β1-β2-β3 (rhesus monkey); assay: cell-based or functional assay
huNav1.7α [3] = target: T2, huNav1.7α (human, UniProt Q15858 1-1988); assay: cell-based or functional assay
huNav1.7α + β1 = target: T3, huNav1.7α + β1 (human); assay: competition FACS vs EC25 of F103275B05(N93R), HEK
T3 construct: HEK293 cells; also called huNav1.7-beta1; huNav1.7-β1

huNav1.7α [4] = target: T2, huNav1.7α; assay: competition FACS vs EC25 of F103275B05(N93R), HEK
huNav1.7α + β1-β2-β3 [5] = target: T1, huNav1.7α + β1-β2-β3; assay: competition FACS vs EC25 of F103275B05(N93R), CHO FlpIn
huNav1.7α + β1-β2-β3 [6] = target: T1, huNav1.7α + β1-β2-β3; assay: competition FACS vs EC25 of F103275B05(N93R), HEK FlpIn
rhNav1.7α + β1-β2-β3 [7] = target: T4, rhNav1.7α + β1-β2-β3 (rhesus monkey); assay: competition FACS vs EC40 of F103275B05(N93R), CHO FlpIn
T4 construct: also called rhNav1.7-beta1-beta2-beta3; rhNav1.7-β1-β2-β3

huNav1.7α+β1 = target: T5, huNav1.7α+β1 (human, UniProt Q15858 1-1988; Q07699 19-218); assay: binding FACS, HEK293 cells
T5 construct: also called huNav1.7-beta1; HEKa/β1
Procedure: (§1) Binding of the ISVDs to cell-expressed Nav1.7α was detected via murine anti-Flag (Sigma, catalog #F1804). Briefly, cells were resuspended in FACS buffer (PBS, 10% FBS, NaN₃) and transferred to a 96-well V-bottom plate at 1×10^5 cells/well. Purified FLAG3-tagged ISVD was diluted in FACS buffer and added to the cells for 30 minutes at 4° C. […] Prior to the read-out, the samples were resuspended in 1 μg/mL propidium iodide (Sigma, catalog #P4170) to exclude dead cells. Between each step, the cells were centrifuged for 5 minutes at 200 grams and washed with 100 μL/well FACS buffer.
(§2) Crude periplasmic extracts containing ISVDs from phage display selections (as described above) were screened in FACS for binding to huNav1.7α but not to huNav1.5a. […] As used in Table 8, the drawings, and throughout the description, Navβ1, Navβ2, and Navβ3 are human homologs unless specifically identified otherwise.

huNav1.7α+β1-β2-β3 [8] = target: T6, huNav1.7α+β1-β2-β3 (human, UniProt Q15858 1-1988; Q07699 19-218; O60939 30-215; Q9NY72 23-215); assay: binding FACS, CHO FlpIn cells
T6 construct: 5N11S variant; also called huNav1.7-beta1-beta2-beta3; huNav1.7α+Navβ1-Navβ2-Navβ3
Procedure: as §1, §2

rhNav1.7α+β1-β2-β3 = target: T7, rhNav1.7α+β1-β2-β3 (rhesus monkey α subunit with human β …); assay: binding FACS, CHO FlpIn cells
T7 construct: P2A cleaves it into α, β1, β2, β3; also called rhNav1.7-beta1-beta2-beta3
Procedure: as §1, §2

huNav1.7α+β1-β2-β3 [9] = target: T6, huNav1.7α+β1-β2-β3; assay: binding FACS, HEK FlpIn cells
Procedure: as §1, §2

[10] = target: T8, huNav157chimera14+β1-β2-β3 (human, UniProt Q07699 19-218; O60939 30-215; Q9NY72 23-215); assay: binding FACS, HEK FlpIn cells
T8 construct: HEK FlpIn line; also called huNav157 chimera 14-beta1-beta2-beta3; Nav157ch14-β1-β2-β3
Procedure: as §1, §2

huNav1.5α+β1-β2-β3 = target: T9, huNav1.5α+β1-β2-β3 (human, UniProt Q14524 1-2016; A5A6L6 19-218; O60939 30-215; Q2KI11 23-215); assay: binding FACS, HEK FlpIn cells
T9 construct: in the cell P2A cleaves it into α, β1, β2, β3; also called huNav1.5-beta1-beta2-beta3
Procedure: as §1, §2

[11] = target: T10, huNav1.7(N146S, V194I, F276V, R277Q, E281V, V331M, E504D, D507E, S508N, N533S)-β1-β2-β3 (human, UniProt Q15858 1-1988; Q07699 19-218; O60939 30-215; Q9NY72 23-215); assay: FACS on transiently transfected HEK293T cells
T10 construct: Transiently on HEK293T cells; The text prints V1941 for V194I; also called chimeric variant of huNav1.7α with all DI huNav1.7α-rhNav1.7α polymorphisms
Procedure: as §1
FACS binding studies (as described above) were performed on HEK293T cells transiently transfected with a chimeric variant of huNav1.7α in which all the huNav1.7α-rhNav1.7α polymorphisms of DI are present (N146S, V1941, F276V, R277Q, E281V, V331M, E504D, D507E, S508N, N533S). Replacing the huNav1.7α DI sequence for that of rhNav1.7α is sufficient to abolish the binding of F0103262CO2, F0103265B04, F0103262B06, and F0103265A11 to huNav1.7α, recapitulating the absence of binding on rhNav1.7α (see FIGS. 21A-21B).

huNav1.3α = target: T11, huNav1.3α (human, UniProt Q9NY46 1-2000); assay: binding FACS on stable huNav1.x paralog HEK293T cell lines
T11 construct: also called huNav1.3 (alpha subunit)

huNav1.4α = target: T12, huNav1.4α (human, UniProt P35499 1-1836); assay: as above
T12 construct: also called huNav1.4 (alpha subunit)
T12 sequence (P35499 whole entry): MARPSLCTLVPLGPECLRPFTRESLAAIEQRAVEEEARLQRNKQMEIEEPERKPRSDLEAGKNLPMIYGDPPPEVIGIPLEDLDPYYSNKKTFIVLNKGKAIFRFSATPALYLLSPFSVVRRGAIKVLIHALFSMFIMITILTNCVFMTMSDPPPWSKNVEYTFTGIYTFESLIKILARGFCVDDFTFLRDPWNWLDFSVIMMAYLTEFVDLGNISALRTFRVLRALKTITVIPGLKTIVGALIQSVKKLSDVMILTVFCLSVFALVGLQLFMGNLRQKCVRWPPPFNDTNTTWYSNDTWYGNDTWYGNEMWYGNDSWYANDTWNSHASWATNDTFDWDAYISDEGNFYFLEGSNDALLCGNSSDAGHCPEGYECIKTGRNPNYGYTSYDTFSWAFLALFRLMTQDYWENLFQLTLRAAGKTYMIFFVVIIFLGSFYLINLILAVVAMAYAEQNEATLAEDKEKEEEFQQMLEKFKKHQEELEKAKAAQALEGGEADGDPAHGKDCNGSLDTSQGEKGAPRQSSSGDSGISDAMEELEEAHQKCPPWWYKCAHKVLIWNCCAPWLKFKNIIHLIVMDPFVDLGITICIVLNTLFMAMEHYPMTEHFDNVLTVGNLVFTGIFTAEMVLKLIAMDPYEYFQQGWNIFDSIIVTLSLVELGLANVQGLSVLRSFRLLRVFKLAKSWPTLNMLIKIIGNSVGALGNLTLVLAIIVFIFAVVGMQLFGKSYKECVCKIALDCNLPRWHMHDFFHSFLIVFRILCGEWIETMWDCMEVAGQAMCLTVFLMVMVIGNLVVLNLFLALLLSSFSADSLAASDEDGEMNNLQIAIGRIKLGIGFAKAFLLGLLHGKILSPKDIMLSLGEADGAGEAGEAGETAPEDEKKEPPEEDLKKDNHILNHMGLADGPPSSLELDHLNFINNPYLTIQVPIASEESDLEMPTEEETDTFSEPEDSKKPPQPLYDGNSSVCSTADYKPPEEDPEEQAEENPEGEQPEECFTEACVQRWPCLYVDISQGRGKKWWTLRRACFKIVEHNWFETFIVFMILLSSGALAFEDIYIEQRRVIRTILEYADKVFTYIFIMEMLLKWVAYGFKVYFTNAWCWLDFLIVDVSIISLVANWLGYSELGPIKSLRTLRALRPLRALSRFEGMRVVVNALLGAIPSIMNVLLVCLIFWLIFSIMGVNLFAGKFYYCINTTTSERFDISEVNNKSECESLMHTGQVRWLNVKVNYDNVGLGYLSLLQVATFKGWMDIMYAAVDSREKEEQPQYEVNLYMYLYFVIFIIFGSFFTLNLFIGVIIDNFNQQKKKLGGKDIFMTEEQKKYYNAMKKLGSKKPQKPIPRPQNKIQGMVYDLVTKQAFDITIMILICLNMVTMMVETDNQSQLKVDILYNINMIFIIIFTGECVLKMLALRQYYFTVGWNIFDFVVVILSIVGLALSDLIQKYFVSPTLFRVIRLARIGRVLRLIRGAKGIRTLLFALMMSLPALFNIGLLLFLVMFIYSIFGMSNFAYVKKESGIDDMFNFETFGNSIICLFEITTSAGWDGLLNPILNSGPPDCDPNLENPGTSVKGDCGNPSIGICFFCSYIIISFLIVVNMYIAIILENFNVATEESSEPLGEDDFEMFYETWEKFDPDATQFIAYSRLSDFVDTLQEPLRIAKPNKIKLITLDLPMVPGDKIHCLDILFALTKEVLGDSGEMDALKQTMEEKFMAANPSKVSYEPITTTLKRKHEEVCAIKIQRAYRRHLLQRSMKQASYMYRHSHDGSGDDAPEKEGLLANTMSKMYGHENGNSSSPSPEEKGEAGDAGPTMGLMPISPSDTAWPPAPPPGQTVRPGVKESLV

huNav1.5α = target: T13, huNav1.5α (human, UniProt Q14524 1-2016); assay: as above
T13 construct: also called huNav1.5 (alpha subunit)

huNav1.6α = target: T14, huNav1.6α (human, UniProt Q9UQD0 1-1980); assay: as above
T14 construct: also called huNav1.6 (alpha subunit)

huNav1.8α = target: T15, huNav1.8α (human, UniProt Q9Y5Y9 1-1956); assay: as above
T15 construct: also called huNav1.8 (alpha subunit)
T15 sequence (Q9Y5Y9 whole entry): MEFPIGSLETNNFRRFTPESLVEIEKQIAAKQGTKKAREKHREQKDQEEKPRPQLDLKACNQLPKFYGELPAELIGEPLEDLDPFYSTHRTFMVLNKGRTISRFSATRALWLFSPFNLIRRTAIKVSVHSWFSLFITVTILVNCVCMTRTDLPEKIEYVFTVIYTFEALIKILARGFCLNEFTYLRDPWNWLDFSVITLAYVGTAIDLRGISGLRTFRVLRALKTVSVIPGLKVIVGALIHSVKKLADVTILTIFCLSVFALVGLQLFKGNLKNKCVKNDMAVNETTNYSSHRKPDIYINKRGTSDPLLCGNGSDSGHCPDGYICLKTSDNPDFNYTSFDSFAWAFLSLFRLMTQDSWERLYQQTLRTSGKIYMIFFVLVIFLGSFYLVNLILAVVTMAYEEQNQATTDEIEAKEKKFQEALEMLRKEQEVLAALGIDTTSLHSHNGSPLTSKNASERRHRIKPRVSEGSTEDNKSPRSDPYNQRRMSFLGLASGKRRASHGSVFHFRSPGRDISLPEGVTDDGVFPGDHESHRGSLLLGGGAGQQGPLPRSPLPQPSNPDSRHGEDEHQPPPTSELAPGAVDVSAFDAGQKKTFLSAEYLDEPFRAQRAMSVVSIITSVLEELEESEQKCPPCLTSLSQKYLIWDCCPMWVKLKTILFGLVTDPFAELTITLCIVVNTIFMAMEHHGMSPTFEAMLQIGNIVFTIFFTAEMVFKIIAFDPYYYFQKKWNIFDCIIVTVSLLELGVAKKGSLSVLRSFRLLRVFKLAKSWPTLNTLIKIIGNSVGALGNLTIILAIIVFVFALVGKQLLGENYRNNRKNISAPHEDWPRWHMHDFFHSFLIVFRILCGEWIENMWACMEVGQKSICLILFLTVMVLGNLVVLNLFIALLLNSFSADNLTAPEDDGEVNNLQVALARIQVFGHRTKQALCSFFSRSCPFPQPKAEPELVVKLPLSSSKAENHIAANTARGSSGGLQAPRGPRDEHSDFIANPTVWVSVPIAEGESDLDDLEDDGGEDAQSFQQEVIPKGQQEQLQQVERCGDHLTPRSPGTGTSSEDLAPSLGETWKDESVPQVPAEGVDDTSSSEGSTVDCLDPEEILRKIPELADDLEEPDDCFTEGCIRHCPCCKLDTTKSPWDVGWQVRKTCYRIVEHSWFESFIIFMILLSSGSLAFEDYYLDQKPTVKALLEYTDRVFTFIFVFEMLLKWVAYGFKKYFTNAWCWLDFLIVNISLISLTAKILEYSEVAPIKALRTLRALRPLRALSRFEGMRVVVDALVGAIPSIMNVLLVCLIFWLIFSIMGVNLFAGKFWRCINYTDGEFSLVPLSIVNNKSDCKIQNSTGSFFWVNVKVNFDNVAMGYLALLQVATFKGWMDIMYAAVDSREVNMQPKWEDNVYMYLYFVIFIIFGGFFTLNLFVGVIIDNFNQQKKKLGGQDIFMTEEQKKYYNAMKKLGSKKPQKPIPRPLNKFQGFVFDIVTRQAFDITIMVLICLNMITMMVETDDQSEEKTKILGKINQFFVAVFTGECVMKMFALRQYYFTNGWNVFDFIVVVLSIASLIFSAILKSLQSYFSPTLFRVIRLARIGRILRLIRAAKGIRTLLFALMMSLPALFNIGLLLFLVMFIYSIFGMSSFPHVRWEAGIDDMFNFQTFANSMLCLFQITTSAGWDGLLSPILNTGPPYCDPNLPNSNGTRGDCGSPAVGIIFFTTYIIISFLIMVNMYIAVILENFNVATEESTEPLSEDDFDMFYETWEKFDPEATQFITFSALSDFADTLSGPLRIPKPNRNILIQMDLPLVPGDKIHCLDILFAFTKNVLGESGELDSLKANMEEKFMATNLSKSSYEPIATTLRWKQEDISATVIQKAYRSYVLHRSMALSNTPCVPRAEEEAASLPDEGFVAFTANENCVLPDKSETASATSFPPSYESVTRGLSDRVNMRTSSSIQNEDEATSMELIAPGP

huNav1.1α = huNav1.1α (human, UniProt P35498 1-2009); assay: as above
huNav1.2α = target: T16, huNav1.2α (human, UniProt Q99250 1-2005); assay: as above
T16 construct: also called huNav1.2 (alpha subunit)

[12] = target: T17, rhNav1.7α + β1-β2-β3 (rhesus Nav1.7α co-expressed with Navβ1, Navβ2 and Navβ3) (rhesus monkey); assay: binding FACS; plus = higher activity than reference
T17 construct: also called rhNav1.7-beta1-beta2-beta3

B2: F0103262C02 (parental)-FLAG-HIS6 (VHH)
VHH: EVQLVESGGGLVQAGGSLTLSCAASGLPFGLYILGWIRRAPGKERDFVAAISRSGRDTVYANSVKGRFTISRDNAKNMVYLRMDNLRPEDTAAYYCAVDSVPRGTPTITESEYAIWGQGTLVTVSS
notes: also called F0103262CO2; F103262CO2
EC50 (huNav1.7α+β1): 180 nM | EC50 (huNav1.7α+β1-β2-β3 [8]): 320 nM | binding result (rhNav1.7α+β1-β2-β3): no binding | EC50 (huNav1.7α+β1-β2-β3 [9]): 380 nM | EC50 [10]: 470 nM | binding result (huNav1.5α+β1-β2-β3): no binding | binding result [11]: no binding (tested: 1 µM) | binding result (huNav1.3α): no binding | binding result (huNav1.4α): no binding | binding result (huNav1.5α): no binding | binding result (huNav1.6α): no binding | binding result (huNav1.8α): no binding | binding result (huNav1.1α): no binding | binding result (huNav1.2α): no binding

B4: F010301886 (VHH)
VHH: EVQLVESGGGLVQPGGSLRLSCATTSRAFIRDVFTGWYRRVPGKERELVARIYNGGNTQYADFAKGRFSISRDNAKKMVTLRMSNLKPEDTGVYYCLFSGTINTGREYRSGDYWGQGTLVTVSS
notes: also called F0103464B09(N58Q); N58Q
EC50 fold change compared to reference [12]: 2 fold

B5: F010301888 (VHH)
VHH: B4 VHH with S26H, Q59N
notes: also called F0103464B09(S26H); S26H
EC50 fold change compared to reference [12]: 3 fold

B6: F010301892 (VHH)
VHH: B4 VHH with V33L, Q59N
notes: also called F0103464B09(V33L); V33L
EC50 fold change compared to reference [12]: 3 fold

B7: F010302379 (bispecific antibody)
chain: DVQLVESGGGLVQPGGSLRLSCAASGSIFNINSMAWYRRAPGKQRELVASSTNGGSTNYADSVKGRFTISRDNAKRVYLQMNSLTPEDTAVYYCRALLQPSIYDISRTYWGQGTLVTVSSGGGGSGGGGSGGGGSGGGGSGGGGSGGGGSGGGGSGGGGSGGGGSGGGGSEVQLVESGGGLVQAGGSLRLSCAASGRTFSRYQMGWFRQAPGKEREFVAYISWSGSTRYVDSVKGRFTISRDNAKNTVYLQMNSLKPEDTAVYHCAAGTAGIISSRPETYDSWGQGTQVTVSSGAADYKDHDGDYKDHDIDYKDDDDKGAAHHHHHH
notes: also called F0103275B05(E1D, N93R)-50GS-F0103500E03(P14A, L108Q)-FLAG3-HIS6
Qpatch IC50 (huNav1.7α + β1-β2-β3 [1]): 3.4 nM | Qpatch IC50 (Rhesus Nav1.7α): 133 nM | Qpatch IC50 (rhNav1.7α + β1-β2-β3 [2]): 131 nM | Qpatch IC50 (huNav1.7α [3]): 111 nM | IC50 (huNav1.7α + β1): 150 nM | IC50 (huNav1.7α [4]): 85 nM | IC50 (huNav1.7α + β1-β2-β3 [5]): 19 nM | IC50 (huNav1.7α + β1-β2-β3 [6]): 16 nM | IC50 (rhNav1.7α + β1-β2-β3 [7]): 4.8 nM

More lines, main results first:

Qpatch IC50 (huNav1.7α + β1-β2-β3 [1]): 0.8 nM | Qpatch IC50 (Rhesus Nav1.7α): 104 nM | Qpatch IC50 (rhNav1.7α + β1-β2-β3 [2]): 75 nM | Qpatch IC50 (huNav1.7α [3]): 74 nM | IC50 (huNav1.7α + β1): 140 nM | IC50 (huNav1.7α [4]): 86 nM | IC50 (huNav1.7α + β1-β2-β3 [5]): 4.1 nM | IC50 (huNav1.7α + β1-β2-β3 [6]): 5.2 nM | IC50 (rhNav1.7α + β1-β2-β3 [7]): 1.2 nM
B1: F010302377 (bispecific antibody)
chain: DVQLVESGGGLVQPGGSLRLSCAASGSIFNINSMAWYRRAPGKQRELVASSTNGGSTNYADSVKGRFTISRDNAKRVYLQMNSLTPEDTAVYYCRALLQPSIYDISRTYWGQGTLVTVSSGGGGSGGGGSGGGGSGGGGSGGGGSGGGGSGGGGSGGGGSGGGGSGGGGSEVQLVESGGGLVQAGGSLRLSCAASKSILSFAYMRWYRQAPGKQREFVASIAIGGATSYTDSVKGRFTISRDNAKNTVYLQMNSLKPEDTAVYYCSAPAGQYRGQGTLVTVSSGAADYKDHDGDYKDHDIDYKDDDDKGAAHHHHHH
notes: also called F0103275B05(E1D, N93R)-50GS-F0103492E09-FLAG3-HIS6

EC50 (huNav1.7α+β1): 5.5 nM | EC50 (huNav1.7α+β1-β2-β3 [8]): 5.4 nM | binding result (rhNav1.7α+β1-β2-β3): no binding | EC50 (huNav1.7α+β1-β2-β3 [9]): 8.1 nM | EC50 [10]: 8.5 nM | binding result [11]: no binding (tested: 1 µM) | binding result (huNav1.3α): no binding | binding result (huNav1.4α): no binding | binding result (huNav1.6α): no binding | binding result (huNav1.8α): no binding | binding result (huNav1.1α): no binding | binding result (huNav1.2α): no binding
B3: F0103265B04 (parental)-FLAG-HIS6 (VHH)
VHH: EVQLVESGGGLVQPGGSLRLSCAAPSFIFSNNYMEWYRQAPGKQRDWVARITGRGNTNYLDSVKGRFTISRDDAKNTVYLEIDSLKPEDTAVYYCSALWYGGRAWGKGTLVTVSS
binding result (huNav1.5α+β1-β2-β3): no binding | binding result (huNav1.5α): no binding
